Data from IntAct's records for PubMed 9528782.

B1: DBF2 kinase activator protein MOB1 (Saccharomyces cerevisiae), P40484 (parent)
chain: MSFLQNFHISPGQTIRSTRGFKWNTANAANNAGSVSPTKATPHNNTINGNNNNANTINNRADFTNNPVNGYNESDHGRMSPVLTTPKRHAPPPEQLQNVTDFNYTPSHQKPFLQPQAGTTVTTHQDIKQIVEMTLGSEGVLNQAVKLPRGEDENEWLAVHCVDFYNQINMLYGSITEFCSPQTCPRMIATNEYEYLWAFQKGQPPVSVSAPKYVECLMRWCQDQFDDESLFPSKVTGTFPEGFIQRVIQPILRRLFRVYAHIYCHHFNEILELNLQTVLNTSFRHFCLFAQEFELLRPADFGPLLELVMELRDR
partner: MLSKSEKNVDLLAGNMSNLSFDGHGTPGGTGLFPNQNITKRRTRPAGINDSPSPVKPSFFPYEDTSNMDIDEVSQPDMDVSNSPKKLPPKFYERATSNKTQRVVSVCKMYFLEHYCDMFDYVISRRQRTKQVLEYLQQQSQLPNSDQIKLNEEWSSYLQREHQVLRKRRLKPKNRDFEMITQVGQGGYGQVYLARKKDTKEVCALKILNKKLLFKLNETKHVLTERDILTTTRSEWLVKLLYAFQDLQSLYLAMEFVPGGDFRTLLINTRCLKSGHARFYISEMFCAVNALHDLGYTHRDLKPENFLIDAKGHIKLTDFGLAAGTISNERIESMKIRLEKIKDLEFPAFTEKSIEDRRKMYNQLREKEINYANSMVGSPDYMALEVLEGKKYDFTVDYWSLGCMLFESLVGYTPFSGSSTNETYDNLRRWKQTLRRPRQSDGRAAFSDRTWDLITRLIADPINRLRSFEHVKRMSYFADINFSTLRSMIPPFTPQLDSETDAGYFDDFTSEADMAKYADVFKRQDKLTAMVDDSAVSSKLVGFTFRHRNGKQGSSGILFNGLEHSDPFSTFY
B2: DBF2 kinase activator protein MOB1 (Saccharomyces cerevisiae), P40484 (parent)
chain: B1 chain
partner: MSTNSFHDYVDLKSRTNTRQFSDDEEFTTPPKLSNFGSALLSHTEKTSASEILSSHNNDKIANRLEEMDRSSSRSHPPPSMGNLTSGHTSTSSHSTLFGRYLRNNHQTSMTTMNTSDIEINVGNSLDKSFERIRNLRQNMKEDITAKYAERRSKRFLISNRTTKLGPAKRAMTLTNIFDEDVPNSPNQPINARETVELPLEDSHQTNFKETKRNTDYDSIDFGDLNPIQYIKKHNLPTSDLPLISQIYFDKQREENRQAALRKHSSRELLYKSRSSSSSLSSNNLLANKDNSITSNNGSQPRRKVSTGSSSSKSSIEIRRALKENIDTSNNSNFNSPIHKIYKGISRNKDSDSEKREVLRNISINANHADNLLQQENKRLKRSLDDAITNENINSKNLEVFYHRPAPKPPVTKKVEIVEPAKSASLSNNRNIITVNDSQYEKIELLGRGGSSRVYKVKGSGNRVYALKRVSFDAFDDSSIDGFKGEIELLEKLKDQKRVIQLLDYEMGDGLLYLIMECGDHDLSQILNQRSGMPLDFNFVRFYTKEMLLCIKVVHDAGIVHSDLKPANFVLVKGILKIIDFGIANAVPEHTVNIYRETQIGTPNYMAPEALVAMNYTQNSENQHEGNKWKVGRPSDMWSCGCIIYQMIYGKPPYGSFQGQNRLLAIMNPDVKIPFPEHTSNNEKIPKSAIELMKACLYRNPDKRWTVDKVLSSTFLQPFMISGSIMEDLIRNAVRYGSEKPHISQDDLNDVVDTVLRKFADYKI
B3: DBF2 kinase activator protein MOB1 (Saccharomyces cerevisiae), P40484 (parent)
chain: B1 chain
partner: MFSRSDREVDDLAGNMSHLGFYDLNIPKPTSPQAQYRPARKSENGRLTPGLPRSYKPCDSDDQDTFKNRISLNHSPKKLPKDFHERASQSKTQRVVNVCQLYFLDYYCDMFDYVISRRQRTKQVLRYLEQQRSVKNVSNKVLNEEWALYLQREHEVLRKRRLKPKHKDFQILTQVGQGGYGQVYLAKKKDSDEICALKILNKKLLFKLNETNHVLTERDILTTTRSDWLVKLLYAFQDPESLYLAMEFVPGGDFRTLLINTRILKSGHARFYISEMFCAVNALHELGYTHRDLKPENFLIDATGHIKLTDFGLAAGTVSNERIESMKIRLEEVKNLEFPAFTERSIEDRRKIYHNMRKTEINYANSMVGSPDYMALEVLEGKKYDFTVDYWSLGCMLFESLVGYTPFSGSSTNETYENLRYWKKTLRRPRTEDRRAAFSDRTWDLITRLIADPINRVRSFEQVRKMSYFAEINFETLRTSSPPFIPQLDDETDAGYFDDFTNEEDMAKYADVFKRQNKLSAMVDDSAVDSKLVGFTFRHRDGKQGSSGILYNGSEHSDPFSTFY

Variants of: B1
Settings: with dbf2_yeast DBF2, P22204

| Variant | effect of a mutation on the interaction |
| --- | --- |
| MSFLQNFHISPGQTIRSTRGFKWNTANAANNAGSVSPTKATPHNNTINGNNNNANTINNRADFTNNPVNGYNESDHGRMSPVLTTPKRHAPPPEQLQNVTDFNYTPSHQKPFLQPQAGTTVTTHQDIKQIVEMTLGSEGVLNQAVKLPRGKDENEWLAVHCVDFYNQINMLYGSITEFCSPQTCPRMIATNEYEYLWAFQKGQPPVSVSAPKYVECLMRWCQDQFDDESLFPSKVTGTFPEGFIQRVIQPILRRLFRVYAHIYCHHFNEILELNLQTVLNTSFRHFCLFAQEFELLRPADFGPLLELVMELRDR [E151K] | disrupting interaction strength |
| MSFLQNFHISPGQTIRSTRGFKWNTANAANNAGSVSPTKATPHNNTINGNNNNANTINNRADFTNNPVNGYNESDHGRMSPVLTTPKRHAPPPEQLQNVTDFNYTPSHQKPFLQPQAGTTVTTHQDIKQIVEMTLGSEGVLNQAVKLPRGEDENEWPIVHCVDFYNQINMLYGSITEFCSPQTCPRMIATNEYEYLWAFQKGQPPVSVSAPKYVECLMRWCQDQFDDESLFPSKVTGTFPEGFIQRVIQPILRRLFRVYAHIYCHHFNEILELNLQTVLNTSFRHFCLFAQEFELLRPADFGPLLELVMELRDR [L157P;A158I] | disrupting interaction strength |
| MSFLQNFHISPGQTIRSTRGFKWNTANAANNAGSVSPTKATPHNNTINGNNNNANTINNRADFTNNPVNGYNESDHGRMSPVLTPPKRHAPPPEQLQNVTDFNYTPSHQKPFLQPQAGTTVTTHQDIKQIVEMTLGSEGVLNQAVKLPRGEDENEWLAVHCVDFYNRINMLYGSITEFCSPQHCPRMIATNEYEYLWAFQKGQPPVSVSAPKYVECLMRWCQDQFDDESLFPSKVTGTFPEGFIQRVIQPILRRLFRVYAHIYCHHFNEILELNLQTVLNTSFRHFCLFAQEFELLRPADFGPLLELVMELRDR [T85P;Q167R;T183H] | decreasing interaction strength |

Variants of: B2
Settings: with mps1_yeast MPS1, P54199

| Variant | effect of a mutation on the interaction |
| --- | --- |
| MSFLQNFHISPGQTIRSTRGFKWNTANAANNAGSVSPTKATPHNNTINGNNNNANTINNRADFTNNPVNGYNESDHGRMSPVLTTPKRHAPPPEQLQNVTDFNYTPSHQKPFLQPQAGTTVTTHQDIKQIVEMTLGSEGVLNQAVKLPRGKDENEWLAVHCVDFYNQINMLYGSITEFCSPQTCPRMIATNEYEYLWAFQKGQPPVSVSAPKYVECLMRWCQDQFDDESLFPSKVTGTFPEGFIQRVIQPILRRLFRVYAHIYCHHFNEILELNLQTVLNTSFRHFCLFAQEFELLRPADFGPLLELVMELRDR [E151K] | with no effect |
| MSFLQNFHISPGQTIRSTRGFKWNTANAANNAGSVSPTKATPHNNTINGNNNNANTINNRADFTNNPVNGYNESDHGRMSPVLTTPKRHAPPPEQLQNVTDFNYTPSHQKPFLQPQAGTTVTTHQDIKQIVEMTLGSEGVLNQAVKLPRGEDENEWPIVHCVDFYNQINMLYGSITEFCSPQTCPRMIATNEYEYLWAFQKGQPPVSVSAPKYVECLMRWCQDQFDDESLFPSKVTGTFPEGFIQRVIQPILRRLFRVYAHIYCHHFNEILELNLQTVLNTSFRHFCLFAQEFELLRPADFGPLLELVMELRDR [L157P;A158I] | with no effect |
| MSFLQNFHISPGQTIRSTRGFKWNTANAANNAGSVSPTKATPHNNTINGNNNNANTINNRADFTNNPVNGYNESDHGRMSPVLTPPKRHAPPPEQLQNVTDFNYTPSHQKPFLQPQAGTTVTTHQDIKQIVEMTLGSEGVLNQAVKLPRGEDENEWLAVHCVDFYNRINMLYGSITEFCSPQHCPRMIATNEYEYLWAFQKGQPPVSVSAPKYVECLMRWCQDQFDDESLFPSKVTGTFPEGFIQRVIQPILRRLFRVYAHIYCHHFNEILELNLQTVLNTSFRHFCLFAQEFELLRPADFGPLLELVMELRDR [T85P;Q167R;T183H] | decreasing interaction strength |

Variants of: B3
Settings: with dbf20_yeast DBF20, P32328

| Variant | effect of a mutation on the interaction |
| --- | --- |
| MSFLQNFHISPGQTIRSTRGFKWNTANAANNAGSVSPTKATPHNNTINGNNNNANTINNRADFTNNPVNGYNESDHGRMSPVLTPPKRHAPPPEQLQNVTDFNYTPSHQKPFLQPQAGTTVTTHQDIKQIVEMTLGSEGVLNQAVKLPRGEDENEWLAVHCVDFYNRINMLYGSITEFCSPQHCPRMIATNEYEYLWAFQKGQPPVSVSAPKYVECLMRWCQDQFDDESLFPSKVTGTFPEGFIQRVIQPILRRLFRVYAHIYCHHFNEILELNLQTVLNTSFRHFCLFAQEFELLRPADFGPLLELVMELRDR [T85P;Q167R;T183H] | disrupting interaction strength |
| MSFLQNFHISPGQTIRSTRGFKWNTANAANNAGSVSPTKATPHNNTINGNNNNANTINNRADFTNNPVNGYNESDHGRMSPVLTTPKRHAPPPEQLQNVTDFNYTPSHQKPFLQPQAGTTVTTHQDIKQIVEMTLGSEGVLNQAVKLPRGEDENEWPIVHCVDFYNQINMLYGSITEFCSPQTCPRMIATNEYEYLWAFQKGQPPVSVSAPKYVECLMRWCQDQFDDESLFPSKVTGTFPEGFIQRVIQPILRRLFRVYAHIYCHHFNEILELNLQTVLNTSFRHFCLFAQEFELLRPADFGPLLELVMELRDR [L157P;A158I] | disrupting interaction strength |
| MSFLQNFHISPGQTIRSTRGFKWNTANAANNAGSVSPTKATPHNNTINGNNNNANTINNRADFTNNPVNGYNESDHGRMSPVLTTPKRHAPPPEQLQNVTDFNYTPSHQKPFLQPQAGTTVTTHQDIKQIVEMTLGSEGVLNQAVKLPRGKDENEWLAVHCVDFYNQINMLYGSITEFCSPQTCPRMIATNEYEYLWAFQKGQPPVSVSAPKYVECLMRWCQDQFDDESLFPSKVTGTFPEGFIQRVIQPILRRLFRVYAHIYCHHFNEILELNLQTVLNTSFRHFCLFAQEFELLRPADFGPLLELVMELRDR [E151K] | disrupting interaction strength |
